Experiment [1] deals with T1, human SLITRK6 on cells (human, UniProt Q9H5Y7 27-841).
T1 construct: whole, on cells
The experiment is described as follows: flow cytometry on 293F-huSLITRK6 cells, PE-conjugated anti-human Fc. For orientation: A flow cytometer gives signals particle by particle.
Description: (§1) Specifically, cells were incubated with 50 μL of mAbs or ADCs in series dilutions in PBS containing 1% BSA at 4° C. for 30 min. The cells were washed twice with PBS containing 1% BSA, stained with PE-conjugated anti human Fc in PBS containing 1% BSA and then incubated at 4° C. for 20 min. After that the cells were washed twice with PBS and analyzed by a flow cytometer.

For experiment [2], the target named is T2, human SLITRK4 (human, UniProt Q8IW52 19-618, limits assumed).
T2 construct: The method text describes only the SLITRK6 ECD-his construct; also called Hu SLITRK4
T2 sequence (looked up): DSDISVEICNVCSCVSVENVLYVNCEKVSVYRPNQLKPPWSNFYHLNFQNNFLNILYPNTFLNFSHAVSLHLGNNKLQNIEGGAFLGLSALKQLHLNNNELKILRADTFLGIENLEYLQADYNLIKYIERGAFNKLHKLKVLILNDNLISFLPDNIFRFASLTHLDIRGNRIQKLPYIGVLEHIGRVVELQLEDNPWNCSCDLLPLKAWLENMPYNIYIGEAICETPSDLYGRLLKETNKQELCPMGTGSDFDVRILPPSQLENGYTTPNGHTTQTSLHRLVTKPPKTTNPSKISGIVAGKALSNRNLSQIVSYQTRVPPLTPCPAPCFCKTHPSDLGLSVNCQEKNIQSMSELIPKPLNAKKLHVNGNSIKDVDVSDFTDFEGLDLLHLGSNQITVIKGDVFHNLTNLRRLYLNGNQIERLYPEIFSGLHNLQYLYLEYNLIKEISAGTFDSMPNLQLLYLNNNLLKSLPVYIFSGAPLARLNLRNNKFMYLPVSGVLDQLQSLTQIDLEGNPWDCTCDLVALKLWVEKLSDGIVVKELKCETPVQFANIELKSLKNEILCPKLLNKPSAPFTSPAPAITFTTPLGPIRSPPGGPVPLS
The experiment is described as follows: BLI, antigen on anti-his tips. (In general: In BLI a coated tip is dipped into the sample, and binding shifts an interference pattern.)
Description: (§2) Binding kinetic of antibody-antigen was characterized by the bio-layer interferometry (BLI). 100 nM of SLITRK6′ extracellular domain linked to his tag was immobilized on anti-his biosensor tips (Fortebio). The sensors were rinsed with the buffer (50 mM Tris-AcOH, pH 6 or 7.5, 0.05% v/v surfactant P20) for 10 min to remove the unbound molecules, then dipped in the antibody solutions at different concentrations for 180 seconds and interspersed by a rinsing step in the buffer solution for 300 seconds. Binding affinity was calculated using ForteBio Data Acquisition 6.3 software (ForteBio) and was derived by fitting the kinetic data to a 1:1 Langmuir binding model utilizing global fitting algorithms. The dissociation or association equilibrium constant KD was calculated from the binding rate constants as KD=koff/kₒₙ (where koff and kₒₙ represent the dissociation kinetic constant and the association kinetic constant, respectively).

In experiment [3] the target is T3, human SLITRK1 (human, UniProt Q96PX8 18-622, limits assumed).
T3 construct: The method text describes only the SLITRK6 ECD-his construct; also called Hu SLITRK1
T3 sequence (looked up): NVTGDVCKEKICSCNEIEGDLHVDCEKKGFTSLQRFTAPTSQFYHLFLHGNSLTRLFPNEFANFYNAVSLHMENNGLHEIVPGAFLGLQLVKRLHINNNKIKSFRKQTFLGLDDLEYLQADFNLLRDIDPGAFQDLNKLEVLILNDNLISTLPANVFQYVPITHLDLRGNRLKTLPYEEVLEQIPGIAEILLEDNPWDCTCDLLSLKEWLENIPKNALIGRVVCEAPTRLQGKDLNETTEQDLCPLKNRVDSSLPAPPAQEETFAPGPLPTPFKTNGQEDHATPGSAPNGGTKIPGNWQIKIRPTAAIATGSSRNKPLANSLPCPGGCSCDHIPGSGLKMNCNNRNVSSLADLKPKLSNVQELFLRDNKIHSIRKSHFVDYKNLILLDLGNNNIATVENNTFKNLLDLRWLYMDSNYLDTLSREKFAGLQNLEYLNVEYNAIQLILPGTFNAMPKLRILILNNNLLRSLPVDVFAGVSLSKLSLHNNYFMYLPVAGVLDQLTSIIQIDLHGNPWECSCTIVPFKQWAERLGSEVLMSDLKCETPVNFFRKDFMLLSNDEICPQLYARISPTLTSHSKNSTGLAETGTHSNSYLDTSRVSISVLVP
The experiment is described as follows: BLI, antigen on anti-his tips.
Description: as §2

Experiment [4] addresses T4, rat SLITRK6 (rat, UniProt D3ZP44 27-607).
T4 construct: extracellular domain; not shown: his tag
The experiment is described as follows: BLI, antigen on anti-his tips.

In experiment [5] the target is T1, human SLITRK6 on cells. As to the kind of experiment: flow cytometry on RT4 cells, PE-conjugated anti-human Fc.
Description: as §1
Experiment [6] has as its target T1, human SLITRK6 on cells. As to the kind of experiment: flow cytometry on SW780 cells, PE-conjugated anti-human Fc.
Description: as §1
Experiment [7] deals with T1, human SLITRK6 on cells. As to the kind of experiment: flow cytometry on KYSE-410 cells, PE-conjugated anti-human Fc.
Description: as §1
The target in experiment [8] is T1, human SLITRK6 on cells. As to the kind of experiment: flow cytometry on RT112/84 cells, PE-conjugated anti-human Fc.
Description: as §1
Experiment [9] has as its target T5, mouse SLITRK6 (mouse, UniProt Q8C110 23-609).
T5 construct: extracellular domain; also called Mu SLITRK6; not shown: his tag
As to the kind of experiment: BLI; antigen-his on anti-his tips, antibody or ADC as analyte; 1:1 fit.

Experiment [10] has as its target T6, cynomolgus monkey SLITRK6 extracellular domain linked to his tag (cynomolgus monkey, UniProt G7PVK4 27-608).
T6 construct: extracellular domain; also called cynoSLITRK6; Cyno SLITRK6; not shown: his tag
Described as above.

Experiment [11] deals with T7, human SLITRK6 extracellular domain linked to his tag (human, UniProt Q9H5Y7 27-608).
T7 construct: extracellular domain; also called huSLITRK6; Hu SLITRK6; not shown: his tag
The experiment is described as above.

In experiment [12] the target is T1, human SLITRK6 on cells. The experiment is described as follows: flow cytometry on CHP-212 cells, PE-conjugated anti-human Fc.
Description: as §1
For experiment [13], the target named is T1, human SLITRK6 on cells. The experiment is described as follows: flow cytometry on KYSE-30 cells, PE-conjugated anti-human Fc.
Description: as §1
In experiment [14] the target is T1, human SLITRK6 on cells. The experiment is described as follows: flow cytometry on RT4 cells.
Description: (§3) The binding activity of mAbs was evaluated by flow cytometer (Beckman, Cytoflex). Specifically, cells were incubated with 50 μL of mAbs or ADCs in series dilutions in PBS containing 1% BSA at 4° C. for 30 minutes. The cells were washed twice with PBS containing 1% BSA, stained with PE-conjugated anti human Fc in PBS containing 1% BSA and then incubated at 4° C. for 20 min. After that the cells were washed twice with PBS and analyzed by a flow cytometer.
Experiment [15] deals with T1, human SLITRK6 on cells. As to the kind of experiment: flow cytometry on SW780 cells.
Description: as §3
The target in experiment [16] is T1, human SLITRK6 on cells. As to the kind of experiment: flow cytometry on SW780 cells, PE-conjugated anti-human Fc. The source holds these as a separate data set.
Description: (§4) The binding activity of mAbs and ADCs was evaluated by flow cytometer (Beckman, Cytoflex). Specifically, cells were incubated with 50 μL of mAbs or ADCs in series dilutions in PBS containing 1% BSA at 4° C. for 30 min. The cells were washed twice with PBS containing 1% BSA, stained with PE-conjugated anti human Fc in PBS containing 1% BSA and then incubated at 4° C. for 20 min. After that the cells were washed twice with PBS and analyzed by a flow cytometer.
Experiment [17] deals with T1, human SLITRK6 on cells. The experiment is described as follows: flow cytometry on CHP-212 cells.
Description: as §3
Experiment [18] concerns the target T6, cynomolgus monkey SLITRK6 extracellular …. As to the kind of experiment: ELISA, coated antigen.
Description: (§5) First, a purified antigen was adsorbed to the surface of a PVC 96-well plate for ELISA at 4° C. overnight, the plate was washed twice by filling the wells with 350 μL TBST buffer (200 mM Sodium Chloride, 20 mM Tris, 0.05% Tween-20, pH 8). The surface of the solid phase having no antigen adsorbed thereto was covered with BSA. After washing the surface with TBST buffer, the surface was incubated with a serially diluted mAb as a primary antibody to bind to the antigen for 1 hour at room temperature. The plate was washed twice with TBST buffer and added an antibody labeled with an enzyme as a secondary antibody to incubate for 1 hour at room temperature.
The target of experiment [19] is T4, rat SLITRK6. The experiment is described as follows: ELISA, coated antigen. For orientation: ELISA stands for enzyme-linked immunosorbent assay.
Description: as §5
In experiment [20] the target is T7, human SLITRK6 extracellular domain …. As to the kind of experiment: ELISA, coated antigen.
Description: as §5
The target is the same in experiment [21]. The experiment is described as follows: BLI binning on huSLITRK6-his; Ab1 = row antibody first, then Ab2 (competitor) = phA290.
Description: (§6) Epitope binning was characterized by the bio-layer interferometry (BLI). 100 nM of human SLITRK6′ extracellular domain linked to his tag was immobilized on anti-his biosensor tips (Fortebio). The sensors were rinsed with the buffer (50 mM Tris-AcOH, pH 6 or 7.5, 0.05% v/v surfactant P20) for 30 seconds to remove the unbound molecules, then dipped in the 100 nM of antibody 1 solutions for 180 seconds and interspersed by a rinsing step in the buffer solution for 300 seconds. After that, the sensors were dipped in the 100 nM of antibody 2 solutions. The epitope cluster was calculated using ForteBio Data Acquisition 6.3 software.
Experiment [22] deals with T1, human SLITRK6 on cells. As to the kind of experiment: flow cytometry on CHP-212 cells. This is another data set of the same source.
Description: as §4
The target of experiment [23] is T1, human SLITRK6 on cells. The experiment is described as follows: flow cytometry on 293F-huSLITRK6-C9 cells.
Description: The binding activity of mAbs was evaluated by flow cytometer (Beckman, Cytoflex). Specifically, cells were incubated with 50 μL of mAbs or ADCs in series dilutions in PBS containing 1% BSA at 4° C. for 30 min. The cells were washed twice with PBS containing 1% BSA, stained with PE-conjugated anti human Fc in PBS containing 1% BSA and then incubated at 4° C. for 20 min. After that the cells were washed twice with PBS and analyzed by a flow cytometer.
The target of experiment [24] is T1, human SLITRK6 on cells. As to the kind of experiment: flow cytometry on SW780 cells. The source holds these as a separate data set.
Description: as §4
The target of experiment [25] is T6, cynomolgus monkey SLITRK6 extracellular …. As to the kind of experiment: BLI; antigen ECD-his on anti-his tips, antibody as analyte; 1:1 fit.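 Further: antibody at several concentrations, 180 s association then 300 s dissociation in Tris buffer at pH 6 or 7.5, rate constants from global fitting, KD computed as koff/kon.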
Description: (§7) Binding kinetic of antibody-antigen was characterized by the bio-layer interferometry (BLI). 100 nM of SLITRK6′ extracellular domain linked to his tag was immobilized on anti-his biosensor tips (Fortebio). The sensors were rinsed with the buffer (50 mM Tris-AcOH, pH 6 or 7.5, 0.05% v/v surfactant P20) for 10 min to remove the unbound molecules, then dipped in the antibody solutions at different concentrations for 180 seconds and interspersed by a rinsing step in the buffer solution for 300 seconds. Binding affinity was calculated using ForteBio Data Acquisition 6.3 software (ForteBio) and was derived by fitting the kinetic data to a 1:1 Langmuir binding model utilizing global fitting algorithms. The dissociation or association equilibrium constant KD was calculated from the binding rate constants as KD=koff/kₒₙ(where koff and kₒₙ represent the dissociation kinetic constant and the association kinetic constant, respectively).
The target of experiment [26] is T7, human SLITRK6 extracellular domain …. Described as above.
Description: as §7
Experiment [27] addresses T1, human SLITRK6 on cells. The experiment is described as follows: flow cytometry on RT112/84 cells.
Description: as §3
For experiment [28], the target named is T1, human SLITRK6 on cells. The experiment is described as follows: flow cytometry on RT4 cells, PE-conjugated anti-human Fc. The source holds these as a separate data set.
Description: as §4
In experiment [29] the target is T7, human SLITRK6 extracellular domain …. The experiment is described as follows: BLI binning on huSLITRK6-his; Ab1 = row antibody first, then Ab2 (competitor) = hu1H2-03.
Description: as §6
Experiment [30] addresses T4, rat SLITRK6. The experiment is described as follows: BLI; antigen-his on anti-his tips, antibody or ADC as analyte; 1:1 fit.
Description: as §2
The target in experiment [31] is T7, human SLITRK6 extracellular domain …. The experiment is described as follows: BLI binning on huSLITRK6-his; Ab1 = row antibody first, then Ab2 (competitor) = phA108.
Description: as §6
Experiment [32] has the same target. As to the kind of experiment: BLI binning on huSLITRK6-his; Ab1 = row antibody first, then Ab2 (competitor) = hu14G1-03.
Description: as §6
The target of experiment [33] is T1, human SLITRK6 on cells. The experiment is described as follows: flow cytometry on RT4 cells. The source holds these as a separate data set.
Description: as §4
For experiment [34], the target named is T7, human SLITRK6 extracellular domain …. The experiment is described as follows: BLI binning on huSLITRK6-his; Ab1 = row antibody first, then Ab2 (competitor) = Sirtratumab.
Description: as §6
Experiment [35] has the same target. As to the kind of experiment: BLI binning on huSLITRK6-his; Ab1 = row antibody first, then Ab2 (competitor) = hu1H2-13.
Description: as §6
The target in experiment [36] is T1, human SLITRK6 on cells. The experiment is described as follows: flow cytometry on 293F-SLITRK6-C9 cells.
Description: as §4

Broadly, the EC50 (read off the curve) is the concentration needed to bring the measured effect to its halfway point. The Kd is a measure of binding affinity in units of concentration. In general, EC50 refers to the concentration giving half of the maximal effect. Broadly, the koff is the first-order rate constant of dissociation. As usually defined, the kon is a measure of how fast the partners come together.

T5 sequence (Q8C110 23-609): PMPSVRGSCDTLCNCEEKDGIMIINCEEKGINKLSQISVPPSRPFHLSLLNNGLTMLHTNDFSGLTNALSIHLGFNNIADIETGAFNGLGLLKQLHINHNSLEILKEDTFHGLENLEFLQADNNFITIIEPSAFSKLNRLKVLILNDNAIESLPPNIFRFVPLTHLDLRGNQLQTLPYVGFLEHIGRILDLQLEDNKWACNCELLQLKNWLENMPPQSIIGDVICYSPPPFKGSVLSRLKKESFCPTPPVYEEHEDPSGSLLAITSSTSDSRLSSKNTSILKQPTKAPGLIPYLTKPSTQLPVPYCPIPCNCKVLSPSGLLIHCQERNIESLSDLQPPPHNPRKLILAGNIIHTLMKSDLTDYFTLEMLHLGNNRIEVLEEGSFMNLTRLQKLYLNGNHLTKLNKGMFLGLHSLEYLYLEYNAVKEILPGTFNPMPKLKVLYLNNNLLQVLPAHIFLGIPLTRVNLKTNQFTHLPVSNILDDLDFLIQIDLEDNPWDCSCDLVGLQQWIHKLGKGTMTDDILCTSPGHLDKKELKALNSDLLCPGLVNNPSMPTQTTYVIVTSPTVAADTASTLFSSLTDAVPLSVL

B1: hu1H2-03-LD038 (antibody, V domains shown)
VH: EVQLVESGGGLVQPGGSLRLSCAASGFTFSDYGLHWVRQAPGKGLEWVSYISSGSSTVYFADTLKGRFTISRDNAKNSLYLQMNSLRAEDTAVYYCTRGTWYFDVWGRGTLVTVSS
VL: DIQMTQSPSSLSASVGDRVTITCRTSENIHSYLAWYQQKPGKSPQLLVYNAKTLADGVPSRFSGSGSGTDYTLTISSLQPEDFGTFYCQHFWTTSRTFGGGTKVEIK
modifications: drug-linker LD038 conjugated to the antibody; positions not given
notes: also called hu1H2-03-LALA-LD038; hu1H2-03-LD038 (8)
On to B1, for which the half-maximal effective concentration (EC50 (read off the curve)) in [1] is approximately 1 nM; in experiment [5] it was approximately 0.3 nM; in experiment [6], approximately 0.4 nM; in [7], approximately 0.2 nM; in [8] it was approximately 0.2 nM; in [12], approximately 0.2 nM. Besides, the “EC50 (read off the curve)” value in experiment [13] is approximately 0.3 nM. For the same molecule, the binding result in experiment [2], in experiment [3] and in experiment [4] was “no binding” in each case. For the same molecule, the Kd was 0.61 nM in experiment [9], 0.21 nM in experiment [10] and 0.08 nM in experiment [11].

B2: Sirtratumab (antibody, V domains shown)
VH: QVQLVESGGGVVQPGRSLRLSCAASGFTFSSYGMHWVRQAPGKGLEWVAVIWYDGSNQYYADSVKGRFTISRDNSKNTLFLQMHSLRAEDTAVYYCARGLTSGRYGMDWGQGTTVTVSS
VL: DIVMTQSPLSLPVTPGEPASISCRSSQSLLLSHGFNYLDWYLQKPGQSPQLLIYLGSSRASGVPDRFSGSGSGTDFTLKISRVEAEDVGLYYCMQPLQIPWTFGQGTKVEIK
notes: Prior-art benchmark antibody; also called Sirtratuzumab
Turning to B2, the EC50 was 0.2 nM in [14]; 0.33 nM in experiment [15]; 0.21 nM in experiment [17]; 0.06 nM in experiment [18]; 0.88 nM in experiment [19]; 0.06 nM in experiment [20]. The EC50 was found to be 0.25 nM in experiment [22]; 1.41 nM in experiment [23]; 0.39 nM in [24]; 0.2 nM in experiment [27]; 0.26 nM in [33]; 1.41 nM in experiment [36]. The half-maximal effective concentration (EC50 (read off the curve)) in [1] is approximately 1 nM; in experiment [5] it was approximately 0.2 nM; in experiment [16], approximately 0.3 nM; in [6], approximately 0.2 nM; in [28] it was approximately 0.3 nM; in experiment [12] it was approximately 0.1 nM. Also, the epitope binning signal in experiment [21] was determined as 0.256; in experiment [29], 0.281; in experiment [31], 0.252; in experiment [32] it was 0.244; in experiment [34], 0.0645; in experiment [35], 0.282. The Kd was found to be 6.01 nM in experiment [25]; 5 nM in experiment [26]; 3.5 nM in experiment [9]; 1.2 nM in experiment [10]; 1.5 nM in experiment [30]; 0.35 nM in experiment [11]. The koff in experiment [25] turned out to be 0.0037 s⁻¹; in experiment [26] it was 0.00416 s⁻¹. In addition, the association rate constant (kon) in experiment [25] worked out at 615000 M⁻¹ s⁻¹; in [26], 831000 M⁻¹ s⁻¹.

For the origin of these results see patent US20250296992A1 (Genmab, published 2025).
